B1: ADC-1 (AbA conjugated to linker drug LD1, structural formula VIII) (antibody, IgG1, V domains shown)
VH: QVQLVQSGAEVKKPGASVKVSCKASGYIFTAYTMHWVRQAPGQGLEWMGWIKPNNGLANYAQKFQGRVTMTRDTSISTAYMELSRLRSDDTAVYYCARSEITTEFDYWGQGTLVTVSS
VL: DIVMTQSPDSLAVSLGERATINCKSSESVDSYANSFLHWYQQKPGQPPKLLIYRASTRESGVPDRFSGSGSGTDFTLTISSLQAEDVAVYYCQQSKEDPLTFGGGTKVEIKR
modifications: TOP1i linker drug LD1 (structural formula V) linked via sulfhydryl groups of reduced cysteine residues; positions not given
B2: ADC-2 (AbA conjugated to linker drug LD2, structural formula IX) (antibody, IgG1, V domains shown)
VH: B1 VH
VL: B1 VL
modifications: TOP1i linker drug LD2 (structural formula VI, maleimide, hydrolyzed) linked via sulfhydryl groups of reduced cysteine residues; positions not given
B3: ADC-3 (AbA conjugated to linker drug LD3, structural formula X) (antibody, IgG1, V domains shown)
VH: B1 VH
VL: B1 VL
modifications: TOP1i linker drug LD3 (structural formula VII, maleimide, hydrolyzed) linked via sulfhydryl groups of reduced cysteine residues; positions not given

Molecular target: c-Met (human, UniProt P08581 25-1390)
Sequence (P08581 25-1390): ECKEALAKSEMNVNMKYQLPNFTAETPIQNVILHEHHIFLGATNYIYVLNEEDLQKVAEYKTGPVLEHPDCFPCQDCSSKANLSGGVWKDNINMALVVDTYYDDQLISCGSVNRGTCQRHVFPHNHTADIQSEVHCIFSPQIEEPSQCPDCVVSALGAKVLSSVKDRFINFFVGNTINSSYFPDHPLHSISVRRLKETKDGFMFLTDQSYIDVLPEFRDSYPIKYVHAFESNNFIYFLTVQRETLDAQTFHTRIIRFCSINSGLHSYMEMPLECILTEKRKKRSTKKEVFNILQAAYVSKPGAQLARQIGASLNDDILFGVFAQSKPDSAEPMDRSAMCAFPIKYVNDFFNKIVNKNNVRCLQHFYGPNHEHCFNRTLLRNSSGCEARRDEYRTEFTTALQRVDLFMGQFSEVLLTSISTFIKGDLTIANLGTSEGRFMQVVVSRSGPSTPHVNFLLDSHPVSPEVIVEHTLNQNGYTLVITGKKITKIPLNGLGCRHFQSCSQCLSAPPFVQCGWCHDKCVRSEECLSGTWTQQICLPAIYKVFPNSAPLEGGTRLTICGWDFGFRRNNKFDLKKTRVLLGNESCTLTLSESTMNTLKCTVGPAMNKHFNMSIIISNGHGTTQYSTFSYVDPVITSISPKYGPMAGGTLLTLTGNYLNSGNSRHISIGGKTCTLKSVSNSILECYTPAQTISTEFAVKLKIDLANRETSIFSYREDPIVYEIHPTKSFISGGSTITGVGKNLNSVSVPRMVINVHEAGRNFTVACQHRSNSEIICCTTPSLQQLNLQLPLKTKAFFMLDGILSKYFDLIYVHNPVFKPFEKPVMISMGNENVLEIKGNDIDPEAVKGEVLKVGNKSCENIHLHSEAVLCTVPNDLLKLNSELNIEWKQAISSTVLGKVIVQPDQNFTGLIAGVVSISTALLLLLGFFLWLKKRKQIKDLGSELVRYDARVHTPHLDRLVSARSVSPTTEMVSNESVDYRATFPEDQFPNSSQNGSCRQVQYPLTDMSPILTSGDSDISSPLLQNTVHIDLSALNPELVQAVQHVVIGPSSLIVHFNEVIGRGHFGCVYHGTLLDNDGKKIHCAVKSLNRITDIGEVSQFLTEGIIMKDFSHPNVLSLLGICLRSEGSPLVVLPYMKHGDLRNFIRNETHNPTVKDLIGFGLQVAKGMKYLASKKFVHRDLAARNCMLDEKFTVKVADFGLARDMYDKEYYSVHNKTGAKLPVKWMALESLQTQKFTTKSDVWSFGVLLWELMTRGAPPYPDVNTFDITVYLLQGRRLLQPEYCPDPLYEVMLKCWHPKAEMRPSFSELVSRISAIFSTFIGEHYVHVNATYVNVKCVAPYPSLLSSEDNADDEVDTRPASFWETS
Experiment: cell-based or functional assay

Row | Binder | Cytotoxicity IC50 (nM), Calu-3 cells [nM] | Cytotoxicity IC50 (nM), HCC827 cells [nM] | Cytotoxicity IC50 (nM), HEK-293 cells (not different from control) [nM] | Cytotoxicity IC50 (nM), MIA PaCa-2 cells (not different from control) [nM] | Cytotoxicity IC50 (nM), NCI-H441 cells [nM] | Cytotoxicity IC50 (nM), NCI-H441 cells (second row so labelled) [nM] | Cytotoxicity IC50 (nM), NCI-H1573 cells (estimated due to curve-fitting issues) [nM] | Cytotoxicity IC50 (nM), SNU-5 cells [nM] | Cytotoxicity IC50 (nM), NCI-H820 cells [nM] | Cytotoxicity IC50 (nM), Hs 746T cells [nM] | Cytotoxicity IC50 (nM), NCI-H1573 cells [nM]
1 | B1 | 20 | 0.85 | > 60 | > 60 | 0.25 | 0.3 | ~1 | 0.19 | – | – | –
2 | B2 | – | 0.9 | – | > 60 | – | 0.25 | ~1 | – | 0.16 | – | –
3 | B3 | – | 0.5 | – | > 60 | – | – | – | – | 0.06 | 0.05 | 1.1

From US20260022128A1 (AbbVie / Abbott, published 2026)
